Target: T1, Tah1 (yeast, full-length) (yeast), P25638
T1 chain: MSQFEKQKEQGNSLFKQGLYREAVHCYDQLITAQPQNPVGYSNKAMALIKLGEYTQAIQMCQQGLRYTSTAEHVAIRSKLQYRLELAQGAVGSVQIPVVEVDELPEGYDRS
Assay: cross-linking; lysine-specific crosslinker DMS, in solution, SDS-PAGE
Details: remark: other sources report otherwise

B1: Tah1 (yeast, full-length), P25638 1-111 (natural protein)
chain: T1 chain
B1 was tested. Which stoichiometry N did it give?
Its stoichiometry N is 2.

Source: publication PMC4058522, “Structural Basis for Phosphorylation-Dependent Recruitment of Tel2 to Hsp90 by Pih1” (Structure(London, England:1993), 2014)
